“And” between values parts separate entries of the source, which are not always exact repeats. Equal values may be shown once. Each block holds one molecule with its values, some of them ahead of it.
Tests used:
Cep152 M4e(1205–1272) = experiment: co-immunoprecipitation (IP: FLAG) and immunoblotting; settings: transfected HEK293 cells; FLAG-Cep152 M4e co-expressed with GFP-Cep63 P1 and GFP-Cep152 M4e; blot α-GFP, M4e band; parent: 1.0
[1] = biological target: Cep63 P1(424–541), expressed in HEK293 cells; experiment: as above; settings: transfected HEK293 cells; FLAG-Cep152 M4e co-expressed with GFP-Cep63 P1 and GFP-Cep152 M4e; blot α-GFP, P1 band; parent: 1.0
[2] = biological target: Cep152(1140–1295), from E. coli (human); experiment: SEC-MALS; Cep63(220–541)•Cep152(1140–1295) complex; Superdex 200 Increase 10/300 GL, 4 °C, 20 mM Tris-HCl (pH 8.0), 150 mM NaCl, 0.5 mM TCEP (the methods name the P1•M4d complex)
[3] = biological target: Cep152 M4e15(1205–1257), from E. coli (human); experiment: AUC; sedimentation velocity of the P1b5•M4e15 complex, 95 to 530 μM; 20 °C; 20 mM Tris (pH 7.5), 100 mM NaCl, 0.5 mM TCEP
[4] = biological target: Cep152 M4e15(1205–1257), from E. coli (human); experiment: SEC-MALS; decreasing concentrations of the P1b5•M4e15 complex; biphasic change of MW, estimated Kd values of two steps of dissociation of the heterotetramer
[5] = biological target: Cep152 M4e(1205–1272) (human); experiment: co-IP; transfected HEK293 cells lysed in TBSN buffer [20 mM Tris-HCl (pH 8.0), 150 mM NaCl, 0.5% Nonidet P-40, 5 mM EGTA, 1.5 mM EDTA]; IP with anti-FLAG or anti-GFP antibody and protein A/G-agarose; immunoblotting
[6] = biological target: Cep152 M4d(1205–1295), from E. coli (human); experiment: AUC; sedimentation velocity, complex at 10 μM; 4 °C; 20 mM Tris (pH 7.5), 500 mM NaCl, 10 mM 2-mercaptoethanol, 0.5 mM TCEP, 5% glycerol
[7] = biological target: Cep152 full-length FL(1–1654) (human); experiment: co-IP; IP from a mixture of lysates from HEK293 cells transfected separately with each construct; with or without provision of HA-Cep63
[8] = biological target: Cep63 P1b(490–541) (human); experiment: co-IP; transfected HEK293 cells lysed in TBSN buffer [20 mM Tris-HCl (pH 8.0), 150 mM NaCl, 0.5% Nonidet P-40, 5 mM EGTA, 1.5 mM EDTA]; IP with anti-FLAG or anti-GFP antibody and protein A/G-agarose; immunoblotting
[9] = biological target: Cep63 full-length (FL) (human); experiment: as above
Cep63 full-length (FL) = experiment: co-immunoprecipitation (IP: FLAG) and immunoblotting; settings: transfected HEK293 cells; FLAG-Cep152 WT or 6A co-expressed with HA-Cep63; blot α-HA, long exposure; parent: 1.0
Cep152 = biological target: T1, Cep152 (Homo sapiens, UniProt O94986); experiment: SEC-MALS
T1 chain: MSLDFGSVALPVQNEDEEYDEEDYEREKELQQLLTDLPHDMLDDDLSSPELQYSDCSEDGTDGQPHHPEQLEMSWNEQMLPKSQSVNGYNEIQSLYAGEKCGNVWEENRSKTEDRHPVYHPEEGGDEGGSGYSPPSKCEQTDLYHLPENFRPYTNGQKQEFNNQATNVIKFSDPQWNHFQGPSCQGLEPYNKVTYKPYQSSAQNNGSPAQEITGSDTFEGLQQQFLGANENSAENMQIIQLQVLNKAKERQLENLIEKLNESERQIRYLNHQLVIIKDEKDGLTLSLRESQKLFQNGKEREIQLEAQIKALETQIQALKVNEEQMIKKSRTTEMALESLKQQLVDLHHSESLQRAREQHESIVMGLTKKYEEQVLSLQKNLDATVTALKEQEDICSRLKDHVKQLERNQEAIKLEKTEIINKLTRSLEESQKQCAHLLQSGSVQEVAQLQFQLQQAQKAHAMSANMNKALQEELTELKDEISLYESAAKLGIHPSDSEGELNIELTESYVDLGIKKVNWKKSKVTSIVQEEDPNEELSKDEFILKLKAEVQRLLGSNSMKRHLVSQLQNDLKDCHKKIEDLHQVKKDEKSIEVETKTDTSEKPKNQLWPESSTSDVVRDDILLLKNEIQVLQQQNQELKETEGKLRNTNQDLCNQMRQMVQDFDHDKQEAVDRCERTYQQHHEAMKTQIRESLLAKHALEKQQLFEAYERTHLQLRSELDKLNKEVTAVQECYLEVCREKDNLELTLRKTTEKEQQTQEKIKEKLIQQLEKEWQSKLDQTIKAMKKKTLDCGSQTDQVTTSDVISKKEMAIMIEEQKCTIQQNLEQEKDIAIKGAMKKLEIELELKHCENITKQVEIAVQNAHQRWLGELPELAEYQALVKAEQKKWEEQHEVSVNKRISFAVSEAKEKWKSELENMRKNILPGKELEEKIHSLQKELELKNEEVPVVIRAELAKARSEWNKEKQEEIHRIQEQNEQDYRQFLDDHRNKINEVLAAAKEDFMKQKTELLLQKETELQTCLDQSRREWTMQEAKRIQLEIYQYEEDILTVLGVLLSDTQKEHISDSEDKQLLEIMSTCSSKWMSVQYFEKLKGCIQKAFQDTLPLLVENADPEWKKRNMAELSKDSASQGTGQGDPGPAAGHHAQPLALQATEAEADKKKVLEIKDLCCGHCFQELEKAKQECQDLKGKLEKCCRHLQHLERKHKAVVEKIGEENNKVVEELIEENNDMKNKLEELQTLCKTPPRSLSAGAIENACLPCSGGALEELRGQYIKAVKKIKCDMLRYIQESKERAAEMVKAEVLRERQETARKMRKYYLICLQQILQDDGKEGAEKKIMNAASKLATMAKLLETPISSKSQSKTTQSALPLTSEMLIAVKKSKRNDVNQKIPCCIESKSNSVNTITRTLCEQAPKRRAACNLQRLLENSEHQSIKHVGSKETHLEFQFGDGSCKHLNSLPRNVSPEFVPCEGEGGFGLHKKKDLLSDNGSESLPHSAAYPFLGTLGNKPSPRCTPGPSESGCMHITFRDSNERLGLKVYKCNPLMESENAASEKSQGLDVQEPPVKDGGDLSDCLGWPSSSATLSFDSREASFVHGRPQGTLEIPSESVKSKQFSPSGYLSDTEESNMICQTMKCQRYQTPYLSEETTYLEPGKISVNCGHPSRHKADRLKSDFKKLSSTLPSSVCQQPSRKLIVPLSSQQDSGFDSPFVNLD

stoichiometry N (Cep63:Cep152 (printed as 2:2)) [2]: 1
Molecule: His-Cep63(220–541), from E. coli (domain or fragment)

loss of co-precipitation against the P1b–M4e pair [5]: 40%
Molecule: GFP-Cep63 P1b5(502–541) (domain or fragment)

loss of co-precipitation against the P1b–M4e pair [8]: 40%
Molecule: GFP-Cep152 M4e13(1205–1260) (domain or fragment)

Kd (Cep152): ~60 µM and ~117 µM
B1: Cep63 (protein)
chain: MEALLEGIQNRGHGGGFLTSCEAELQELMKQIDIMVAHKKSEWEGRTHALETCLKIREQELKSLRSQLDVTHKEVGMLHQQVEEHEKIKQEMTMEYKQELKKLHEELCILKRSYEKLQKKQMREFRGNTKNHREDRSEIERLTAKIEEFRQKSLDWEKQRLIYQQQVSSLEAQRKALAEQSEIIQAQLVNRKQKLESVELSSQSEIQHLSSKLERANDTICANELEIERLTMRVNDLVGTSMTVLQEQQQKEEKLRESEKLLEALQEEKRELKAALQSQENLIHEARIQKEKLQEKVKATNTQHAVEAIRPREESLAEKKYTSQGQGDLDSVLSQLNFTHTSEDLLQAEVTCLEGSLESVSATCKQLSQELMEKYEELKRMEAHNNEYKAEIKKLKEQILQGEQSYSSALEGMKMEISHLTQELHQRDITIASTKGSSSDMEKRLRAEMQKAEDKAVEHKEILDQLESLKLENRHLSEMVMKLELGLHEAKEISLADLQENYIEALNKLVSENQQLQKDLMNTKSQLEISTQMCKKQNDRIFKPTHSRTTEFKNTEFKPTHGQHRHDGIKTEHYKTDLHSPRGQASDSINPMSRVLSPLSPQISPCSSTRSLTSYSLCKTHSLPSALDTNEANFSDTMSESMNDQEEFISSCSLPVSPLGSIATRFLEEEELRSHHILERLDAHIEELKRESEKTVRQFTALK

The remaining lines, values behind:

Molecule: Cep152 M4e(1205–1272) 11A
ratio to parent (Cep152 M4e(1205–1272)): 0
ratio to parent [1]: 0

Molecule: Cep152 M4e(1205–1272) 5A
ratio to parent (Cep152 M4e(1205–1272)): 0.7
ratio to parent [1]: 0.9

Molecule: His-Cep63 P1b5(502–541), from E. coli (pKM5500) (domain or fragment)
stoichiometry N (Cep63:Cep152 (printed as 2:2)) [3]: 1
Kd of one of two steps of dissociation of the 2:2 heterotetramer (step not assigned) [4]: 60 µM

Molecule: His-Cep63 P1(424–541), from E. coli (domain or fragment)
stoichiometry N (Cep63:Cep152 (printed as 2:2)) [6]: 1

Molecule: Cep152 M4e(1205–1272) L1207A; L1210A; Y1214A; I1221A; M1225A; Y1228A
ratio to parent (Cep152 M4e(1205–1272)): 0.1
ratio to parent [1]: 0

Molecule: Cep152 full-length FL(1–1654) (natural protein)
fold increase of the co-precipitate on provision of Cep63 [7]: 8 fold

Molecule: Cep63 full-length (FL) (natural protein)
fold increase of the co-precipitate on provision of Cep152 [9]: 8 fold

Molecule: Cep152 full-length FL(1–1654) L1207A; L1210A; Y1214A; I1221A; M1225A; Y1228A
ratio to parent (Cep63 full-length (FL)): 0.1

Reference: article PMC6411776 (2019)
